Results on three molecules are retold here after patent US20200369781A1 (published 2020).

Assay [1] addresses T1, soluble human IL-6R (human, UniProt P08887 20-357).
T1 construct: 152, 4958-4968 (1994); also called hsIL-6R; recombinant human IL-6R
T1 sequence: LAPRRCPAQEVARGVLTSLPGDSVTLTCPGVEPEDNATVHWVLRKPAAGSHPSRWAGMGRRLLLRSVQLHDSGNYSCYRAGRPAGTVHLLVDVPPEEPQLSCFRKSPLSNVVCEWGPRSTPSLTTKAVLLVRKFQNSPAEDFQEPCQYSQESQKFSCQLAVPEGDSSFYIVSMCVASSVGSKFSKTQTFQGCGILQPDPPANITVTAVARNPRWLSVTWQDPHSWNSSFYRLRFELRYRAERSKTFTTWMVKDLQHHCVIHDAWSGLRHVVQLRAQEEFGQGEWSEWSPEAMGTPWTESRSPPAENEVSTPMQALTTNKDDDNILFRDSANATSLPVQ
Put plainly: BLI (Octet HTX), molecule captured on Protein A biosensor, hsIL-6R as analyte, 30 C. The procedure:
The hsIL-6R binding evaluation of each molecule was conducted using Octet HTX (Pall ForteBio Corp.). Specifically, each molecule was allowed to bind to Biosensor/Protein A (ProA) (Pall ForteBio Corp., 18-5013), and hsIL-6R was allowed to act thereon, followed by binding evaluation at 30° C.
(In general: In BLI a coated tip is dipped into the sample, and binding shifts an interference pattern.)

Assay [2] addresses T1, soluble human IL-6R. Description: BLI (Octet), in the same way as in Example 3.
The target of assay [3] is T1, soluble human IL-6R. Put plainly: BLI (Octet), in the same way as in Example 3, 30 C or 25 C.

Changes are numbered by the printed parent chain.

B1: IL6R90-G1m/VK2-28-k0MT (antibody, human IgG1, kappa, V domains shown)
VH: EVQLVESGGGLVQPGGSLRLSCAASGFTFDDYGMSWVRQAPGKALEWVSAISWNGNNTYYTESMKGRFTISRDNAKNTLYLQMNSLRPEDTAVYYCVKGSTAIVGVPPTYPDEYDYWGQGTLVTVSS
VL: not shown
notes: IgG antibody-like molecule with VHH IL6R90 in place of VH
As for B1, the binding result with soluble human IL-6R [1] was “no binding”.

B2: 20A11-G1m/VK2-28-k0MT (antibody, human IgG1, kappa, V domains shown)
VH: EVQLVESGGGLVQPGGSLRLSCAASGSVFKINVMAWYRQAPGKGRELVAGIISGGSTSYADSVKGRFTISRDNAKNTLYLQMNSLRPEDTAVYYCAFITTESDYDLGRRYWGQGTLVTVSS
VL: not shown
notes: IgG antibody-like molecule with VHH 20A11 in place of VH
As to B2, the binding result with soluble human IL-6R [2] is on record as “binds”.

B3: 20A11hu-G1m/VK2-28-k0MT (antibody, human IgG1, kappa, V domains shown)
VH: B2 VH with Y37V, R45L, L47W
VL: not shown
notes: IgG antibody-like molecule with VHH 20A11hu in place of VH
As to B3, the binding result in the assay with soluble human IL-6R [3] is listed as “no binding”.
